Reference: patent US20240417475A1 (AFFIMED, published 2024)

How the values were obtained:
Test in all cases: SPR (Biacore T200), 37 °C, multivalent multi-cycle kinetics, biotin-captured antigen as ligand, construct as analyte, 1:1 binding model, n=3
[1] = target: recombinant cynomolgus CD16, biotinylated, mFc.silenced/Avi-tagged (cynomolgus, UniProt Q8SPW2 17-208, biotinylated (Avi-tag))
Protocol: (§1) For multivalent interaction analysis, biotinylated-mFc.silenced/Avi-tagged antigens were captured (FC2, FC4) to a density of 120-200RU, before CD123×CD16A ICE were injected (concentration: 0-60 nM) for 240s at a flow rate of 40 μL/min and complex was left to dissociate for 300s at the same flow rate.
(§2) After each cycle, chip surfaces were regenerated with 6M guanidine-HCl, 0.25M NaOH and reloaded with Biotin Capture reagent. Interaction kinetics were determined by fitting data from multi-cycle kinetics experiments to a simple 1:1 interaction model using the local data analysis option (Rmax and RI) available within Biacore T200 Evaluation Software (v3.1). Referencing was done against a flow cell without captured ligand (Fc2-Fc1, Fc4-Fc3).

[2] = target: T1, recombinant human CD16A^158V, biotinylated, mFc.silenced/Avi-tagged (human, UniProt P08637 17-208, biotinylated (Avi-tag))
T1 construct: also called CD16^158V
T1 sequence (P08637 17-208 F176V limits assumed): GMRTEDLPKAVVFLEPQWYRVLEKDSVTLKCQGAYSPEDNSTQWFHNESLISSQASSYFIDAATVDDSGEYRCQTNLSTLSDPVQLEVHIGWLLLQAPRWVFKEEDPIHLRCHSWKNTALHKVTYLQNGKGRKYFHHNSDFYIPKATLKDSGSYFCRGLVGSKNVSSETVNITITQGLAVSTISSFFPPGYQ
Protocol: as §1, §2

[3] = target: recombinant human CD16A^158F, biotinylated, mFc.silenced/Avi-tagged (human, UniProt P08637 17-208, biotinylated (Avi-tag))
Chain of recombinant human CD16A^158F, biotinylated, mFc.silenced/Avi-tagged (P08637 17-208): as the sequence (P08637 17-208 F176V limits assumed) above, with V160F counted along it
Protocol: as §1, §2

Chain of recombinant cynomolgus CD16, biotinylated, mFc.silenced/Avi-tagged (Q8SPW2 17-208): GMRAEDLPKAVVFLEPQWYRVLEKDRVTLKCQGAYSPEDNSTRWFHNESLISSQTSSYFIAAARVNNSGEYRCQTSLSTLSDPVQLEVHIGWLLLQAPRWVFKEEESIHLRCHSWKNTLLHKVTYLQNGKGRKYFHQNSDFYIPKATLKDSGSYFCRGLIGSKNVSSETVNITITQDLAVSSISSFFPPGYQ

B1: scFv-IgAb_264 (CD123-2×CD16a2) (bispecific antibody)
chain 1: QVQLVQSGAEVKKPGASVKMSCKASGYTFTDYYMKWVKQAPGQGLEWIGDIIPSNGATFYNQKFKGKATLTVDRSISTAYMHLNRLRSDDTAVYYCTRSHLLRASWFAYWGQGTLVTVSSASTKGPSVFPLAPSSKSTSGGTAALGCLVKDYFPEPVTVSWNSGALTSGVHTFPAVLQSSGLYSLSSVVTVPSSSLGTQTYICNVNHKPSNTKVDKKVEPKSCDKTHTCPPCPAPEFEGGPSVFLFPPKPKDTLMISRTPEVTCVVVAVSHEDPEVKFNWYVDGVEVHNAKTKPREEQYNSTYRVVSVLTVLHQDWLNGKEYKCKVSNKALPAPIEKTISKAKGQPREPQVYTLPPSREEMTKNQVSLTCLVKGFYPSDIAVEWESNGQPENNYKTTPPVLDSDGSFFLYSKLTVDKSRWQQGNVFSCSVMHEALHNHYTQKSLSLSPGGGGGSGGGGSGGGGSGGGGSGGGGSGGGGSSYELTQPLSVSVALGQTARITCGGHNIGSKNVHWYQQKPGQAPVLVIYQDNKRPSGIPERFSGSNSGNTATLTISRAQAGDEADYYCQVWDNYNVLFGCGTKLTVLGGSGGSGGSGGSGGSGGSGGSQVQLVQSGAEVKKPGASVKVSCKASGYTFTSYYMHWVRQAPGQCLEWMGAIEPRYGSTSYAQKFQGRVTMTRDTSTSTVYMELSSLRSEDTAVYYCARGSAYYYDFADYWGQGTLVTVSS
chain 2: not shown
notes: also called scFv-IgAb_264 (CD16a1×CD123-2); CD123-1×CD16a2 scFv-IgAb_264
Q: B1 was tested. Which Kd [1] did it give?
A: The Kd was 2400 pM.

Q: What about the koff [1] of the same binder?
A: The koff was 0.013 s⁻¹.

Q: What about the kon [1] of the same binder?
A: Its kon is 5.2e+06 M⁻¹ s⁻¹.

Q: What about the Kd [2] of the same binder?
A: Its Kd is 430 pM.

Q: What about the koff [2] of the same binder?
A: The koff was 0.0027 s⁻¹.

Q: And the kon [2]?
A: Its kon is 6.3e+06 M⁻¹ s⁻¹.

Q: And the Kd [3]?
A: Its Kd is 567 pM.

Q: And the koff [3]?
A: Its koff is 0.0036 s⁻¹.

Q: And the kon [3]?
A: The kon was 6.4e+06 M⁻¹ s⁻¹.
